Data reported in article PMC5171940.

Target: biotinylated Aβ immobilised for the SPR of CreneFab alanine mutants
Assay: SPR; BIAcore T200, single-cycle kinetics; biotinylated Aβ (11–28 or oligomeric 1–42) captured on streptavidin-coupled CM5 chip (100–200 RU); antibody as analyte 0.8–500 nM in HBS-P pH 7.4, 0.15 M NaCl; one-to-one Langmuir model

B1: CreneFab Ser52a alanine mutant (Fab, V domains shown)
VH: EVQLVESGGGLVQPGGSLRLSCAASGFTFSSYGMSWVRQAPGKGLELVASINANGGSTYYPDSVKGRFTISRDNAKNSLYLQMNSLRAEDTAVYYCASGDYWGQGTLVTVSS
VL: DIVMTQSPLSLPVTPGEPASISCRSSQSLVYSNGDTYLHWYLQKPGQSPQLLIYKVSNRFSGVPDRFSGSGSGTDFTLKISRVEAEDVGVYYCSQSTHVPWTFGQGTKVEIK
fold reduction of affinity against wild-type CreneFab: 1.8 fold

B2: CreneFab with deletion of Glu1^HC and Val2^HC (Fab, V domains shown)
VH: QLVESGGGLVQPGGSLRLSCAASGFTFSSYGMSWVRQAPGKGLELVASINSNGGSTYYPDSVKGRFTISRDNAKNSLYLQMNSLRAEDTAVYYCASGDYWGQGTLVTVSS
VL: B1 VL
fold reduction of affinity against wild-type CreneFab: 2.6 fold
